From the DeepSol protein solubility set

Test: soluble on expression in E. coli; label from the status in PepcDB or PDB records

Sequence | soluble on expression in E. coli
MSDRQAALDMALKQIEKQFGKGSIMKLGEQAERKVSTVSSGSLALDVALGVGGYPRGRIIEIYGPESSGKTTVSLHAIAEVQRQGGQAAFIDAEHAMDPVYAQKLGVNIDELLLSQPDTGEQGLEIAEALVRSGAVDIIVIDSVAALVPKAEIEGDMGDSHVGLQARLMSQALRKLSGAINKSKTIAIFINQIREKVGVMFGNPETTPGGRALKFYSTVRLEVRRAEQLKQGNDIVGNKTKVKVVKNKVAPPFRVAEVDIMYGEGISREGEILDMASELDIVQKSGAWYSYNEERLGQGRENSKQFLKENTDLREEIAFFIREHHGISEDSGAEGMEDPNLLD | not soluble
MSDSHHKPVWDRTHHAKMATGIGDPQCFKGMAGKSKFNVGDRVRIKDLPDLFYTRTMTYTRGATGTIVRLVYESPAAEDEAFGNEENVEWFYSIVFAQKDLWPEYSDTFANDTLETEIPERYLEKA | soluble
MSDSSNQLMPLSLSAPGVNLGAYISTVNQIPILTAEQEKELAERYYYDQDLDAAKMLVMSHLRFVVHIARSYAGYGLPQGDLIQEGNLGLMKAVKRFDPNMGVRLVSFAVHWIKAEIHEYVIRNWRIVKIATTKAQRKLFFNLRSLKKSSKKLTLEEAQSIANDLNVTPEQVLEMEGRLTAYDAAFETQGDDDDDSSTHVAPALYLEDNRYDPARLAENDDYEEQSSTALHEAMNQLDDRSRNILQRRWLDDDKSTLHELAAEYNVSAERIRQLEKNAMEKIKVAMSAG | not soluble
MSDSSPTNLPSRAFATQKLAKLIDRWTGNANQYDTPISGLRFSRWTTPTPPTSYTHNPSICLIAQGRKRVLLGEESFIYDANHFLISSVDLPIIANIIEASEEQPYLGLIMELDLTEISQLIVDSELAFTQSKEAQKGIAVGELSESLLDAFVRLAELLDEGQNIKILAPIIKREIFYRLLMSEQGTRLHQIATAGSHSHQIAKAIDWLKNNFVKPLSVGDLASYTGMSKSSFYTHFRSMTSMTPLQFQKKLRLSEARRLMLTENLDAMAATFKVGYESPSQFSREYSRLFGAPPSKDIKSLRENLG | not soluble
MSDVDADEARKMAERERKKEEVRKRLEEASRMKKAKKGFLTPERKKKLRKLLMMKAAEDLKQQQMLKEQERQRILQERIIPLPDLDNEDDLEAVYDEIRERLIDLESENYDVSYIVRQKDFEINELTIAVNDLRGKFVKPTLKKVSKTEGKFDKLKKKEATKVDFRAQLKVVDKNEFALDEEDTEKKEKAAWAK | not soluble
MSDVLITLSVELEDRPGQLLKVLQPISGMGGNIVGIVHQRGKKTPLNRLPVEISFKMDSEKVQKLIDELKSLGIIIRSFNEVRLTATTSVLLIGHLIHTDISDTISSIDVDGEAECVEMHVSMPEISGPSTAIITISASGKEKLKEAVEKLKEVCRKKEIILIEPVNEELV | not soluble
MSEAHPPELKKFMDKKLSLKLNGGRHVQGILRGFDPFMNLVVDDTIEMAPGGQMNTIGMVVIRGNSIIMLEALERV | soluble
MSEEPVAAPGTISHPVYKLKRNWTWWYLNDERNKSWEERLKNVKTFSSVGEFWALHDSIKPPSGLNPPSDYNVFRDGIEPMWEVPQNQNGGRWLITIEKGRTPEIMDTIWTEILMAMIGEQFSDDIESLCGIVCNVRGKGSKISVWTTNSADDGANLRIGGVLKQVLNNASMIHQRPLYDVLRYEDHESCQKKTSSGVKAKHAIYAVEPREEKAPVPVSTETPATPAT | not soluble
MSEFSQTALFPSLPRTARGTAVVLGNTPAGDKIQYCNGTSVYTVPVGSLTDTEIYTEHSHQTTVAKTSPSGYYCASGDVHGNVRIWDTTQTTHILKTTIPVFSGPVKDISWDSESKRIAAVGEGRERFGHVFLFDTGTSNGNLTGQARAMNSVDFKPSRPFRIISGSDDNTVAIFEGPPFKFKSTFGEHTKFVHSVRYNPDGSLFASTGGDGTIVLYNGVDGTKTGVFEDDSLKNVAHSGSVFGLTWSPDGTKIASASADKTIKIWNVATLKVEKTIPVGTRIEDQQLGIIWTKQALVSISANGFINFVNPELGSIDQVRYGHNKAITALSSSADGKTLFSADAEGHINSWDISTGISNRVFPDVHATMITGIKTTSKGDLFTVSWDDHLKVVPAGGSGVDSSKAVANKLSSQPLGLAVSADGDIAVAACYKHIAIYSHGKLTEVPISYNSSCVALSNDKQFVAVGGQDSKVHVYKLSGASVSEVKTIVHPAEITSVAFSNNGAFLVATDQSRKVIPYSVANNFELAHTNSWTFHTAKVACVSWSPDNVRLATGSLDNSVIVWNMNKPSDHPIIIKGAHAMSSVNSVIWLNETTIVSAGQDSNIKFWNVPF | soluble
MSEHLTLPTNKPQVTHFSSGPCAKHPGWSVSNLENACLGRSHRSEDGKAKLSEVIERSKQILGLPADYRLGIVPASDTGAVEMALWSLLGQRPLDILAWESFGQEWVKDVVDELKLPDVRLLKAPYGGLPNLDEVDFSHDVVFLWNGTTSGVRVPNGDWIKDDRQGLTICDATSAVFAMDIPWEKIDVLTYSWQKVLGGEAQHGVIVLSPRAVERLQTYEPAWPIPKIFRLSQKGKLIEGIFKGDTINTPSMLCVEDALDALIWAESVGGLPGLISRSEANLAAIAQWVKQSNWADFLAEKPETRSCTSICLKIVDAAFASLSAEDQGKFAKKLAKLLEKQQVAYDIAPYRAAPPGLRIWGGATVETADIEALLPWLDWAYANVKAEFVPVA | soluble
MSEIVVSKFGGTSVADFDAMNRSADIVLSDANVRLVVLSASAGITNLLVALAEGLEPGERFEKLDAIRNIQFAILERLRYPNVIREEIERLLENITVLAEAAALATSPALTDELVSHGELMSTLLFVEILRERDVQAQWFDVRKVMRTNDRFGRAEPDVAALAELAALQLLPRLNEGLVITQGFIGSENKGRTTTLGRGGSDYTAALLAEALHASRVDIWTDVPGIYTTDPRVVSAAKRIDEIAFAEAAEMATFGAKVLHPATLLPAVRSDIPVFVGSSKDPRAGGTLVCNKTENPPLFRALALRRNQTLLTLHSLNMLHSRGFLAEVFGILARHNISVDLITTSEVSVALTLDTTGSTSTGDTLLTQSLLMELSALCRVEVEEGLALVALIGNDLSKACGVGKEVFGVLEPFNIRMICYGASSHNLCFLVPGEDAEQVVQKLHSNLFE | not soluble
MSELTQLAQQEKKQTYNFNKLQKRLRRNVGNAIADFGMIEDGDKVMVCLSGGKDSYTLLDILLNLQQSAPIKFDIVAVNLDQKQPGFPEHVLPEYLESIGVDYKIVQENTYGIVKEKIPEGKTTCSLCSRLRRGILYRTATELGATKIALGHHRDDMLATLFLNMFYGGKIKSMPPKLISDDGKQIVIRPLAYCKEKDIEKYAIAKEFPIIPCNLCGSQPNLQRQVVKEMLNTWDRQYPGRLETMFSAMQNITLSHMCDPKLFDFKGIKHGQLIDGIEGDTAFDEERITPMQFEDEDQTDFSNKEMINFKEVN | not soluble
MSENHVPAWKRIALKRQTISSGDESKEKGQSNLIDDDPLNITTHLSTGNLTKKEKKRIINGESKSSTKKGKRVSKPGTKKKEKLSKDEKNSKKNKILKDQLRYLIEFFRTKSESKFPTGILELESVKENYGDSLIKDEPSESGVVEVWKFSKQKQNWLIKHFFNLDEIPSVYNDLLLLYFRDLQGKSKEELISKCKGKLKQWNDYVEDQETKIKALIAEDKASEPINGEEKEEGEKDGNAEQGKQKEVQDEQEEVQMPNKELVQRSLKLLEIWKNDDSEQIELKNFFVDV | soluble
MSEPSEKKQKVATSSLEQLKKAGTHVVADSGDFEAISKYEPQDSTTNPSLILAASKLEKYARFIDAAVEYGRKHGKTDHEKIENAMDKILVEFGTQILKVVPGRVSTEVDARLSFDKKATVKKALHIIKLYKDAGVPKERVLIKIASTWEGIQAARELEVKHGIHCNMTLLFSFTQAVACAEANVTLISPFVGRIMDFYKALSGKDYTAETDPGVLSVKKIYSYYKRHGYATEVMAASFRNLDELKALAGIDNMTLPLNLLEQLYESTDPIENKLNSESAKEEGVEKVSFINDEPHFRYVLNEDQMATEKLSDGIRKFSADIEALYKLVEEKMLEHHHH | soluble
MSEQFEMIAKTFQGLEEILAEELTTLGANDIQIGRRMVSFTGDKRMMYKANFCLRTAIRILKPIKNFTAKDADEVYNQIQAIPWEEYLDVNKTFAIDAVVFSEEFRHSKFVSYKVKDAIVDYFRKKTGKRPSVRINNPDVLLNIHIAQTTCTLSLDSSGESLHRRGYRQEQVDAPLNEVLAAGMLLMTGWRGECDLIDPMCGSGTIPIEAALIARNIAPGVFRKGFAFEKWVDFDSEMFDEIYNDDSQEREFTHKIYGYDNNPKANEIATHNIKAAGVSKDVTLKLQPFQQFEQPQEKSIIVMNPPYGERISTNDLLGLYQMIGERLKHAFVGNEAWVLSYREECFDQIGLKPSKKVPLFNGALECEFRKYEIFDGKYKEFKSQEGEGEEKKETEGNYDTSRPRERKEFKPRGEGEFKPRREGEFKPRREGEFKPRKEGDFKPRREEGSFTRDDRDRKPRGEFRGERDSRAPREFRGNREPRIPKKEEE | not soluble
MSEQLTDQVLVERVQKGDQKAFNLLVVRYQHKVASLVSRYVPSGDVPDVVQEAFIKAYRALDSFRGDSAFYTWLYRIAVNTAKNYLVAQGRRPPSSDVDAIEAENFESGGALKEISNPENLMLSEELRQIVFRTIESLPEDLRMAITLRELDGLSYEEIAAIMDCPVGTVRSRIFRAREAIDNKVQPLIRR | not soluble
MSERLEVSIEGEDDFPFDEDNIQELDHFDIGEDEDPEEVAQEDAGVWQERVPLTRQKRKQVLRKPGRKRTGEIIHIPKRQPPRAVRVKSYQQYDAFDELVEQDLDDSDPEVMDDDGEPSTSKTWRIFVRKDGSGMHFDWPIFMDSAVSLKDVVNFISTDASEIPKSLICTSIPQEFTNTGTFIIHLEEGLLKEEICNDGLGTWNSAQMFVRKYVLGVGRARPLMTQKNDHNLKHIFISGFDKDEHMIPYVVICYEWMGQPHPLTVYEDQTEKQAFEQMTWKKCSNPEDQVPILARHGCDYNSAVAILLSSEKCTNYGKSVPQFVQECISFVIDINECGGDRALFLDGNEWQRPSGSHRFFRILYPNQDHGDFDTWNIERASSNFNVTNSDIQIICRRYNGQKYSQSFGFVRKIYLLKILPLCPPEVAEQLHNRDLAVISYSYRNAPHPTFIEQPDRQKLPDGQRVGEEVELVSGDVMFDDDISPEMREMVENMERKKKINSERLMELLQRIHRIDQICKKEAWLESSAEVQQLTQIAQLLHYCQ | not soluble
MSESIESYGIRLLNVYRETICDGPGLHYSIYLAGCRHACPGCHNPSSWDPEAGVLMTDSILGNIIREINANPLLDGITLSGGDPFYNPAGLTCLLQRLRASCTLPIWCYTGYTLEQLETDPMLSAPLALIDVLVDGPFVRELFDPTLLWRGSSNQCIIRLHENLEHHHHHH | not soluble
MSETIEIDELVFSVKRSTRRRTVGVTVERDKSLVAHLPQGVALDVATRLIASKLLWVHQKLAEHGETARDDVFRIPEFVDGEGFHLLGKHYRLKLVDVPKNVTGVPSVRFEGDRILLRREQAASGGKRIEEYYTRAAHPYLNETVQRWKRIVGVEPGRFVQVMDLGYRWGSCSEDGTLNFHWRTMQLPPRIIEYVVVHELVHIKVPNHSEKFWKMIGSVMPDYESRKAWLKQKGGELLEHHHHHH | not soluble
MSETVSVESSVDSNINQDVNIRATYLGAHELKLAASLLYQAYHDDPVFLDIFKSDKEDYEQRLRGAIREELNAFWQAKQPMIGLYLGEAMVGVACINSPDETLASDRFWHWRLKMLLNAGYFSTKQMMQKEHTVLAAVPLKIFHFLSFIAVHPLHQQHGFGHYLMAAVNTVLDEHPDSEGVAVYATSGKFKEFFKQVDYHTVKEVTVGNVCGSVMVHYRDKEE | soluble
